Source: US20230189818A1, “RNA-BASED CONTROL OF BOTRYTIS” (priority 2021, published 2023)

What was measured:
[1] = tested on: Botrytis cinerea conidia; test: In vitro liquid-based assay (fungal biomass, 96-well plates, Cytation 5); assay type: cell-based; conditions: co-incubated with conidia for three days, vs untreated control
Method in brief: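 Conidia (5000/mL stock) were co-incubated with dsRNA or control treatments in pH 6.0 minimal medium. Incubation ran 72 h at 23 °C, shaking at 120 rpm under continuous light. Fungal biomass was measured by brightfield imaging (8 slices per well, 2.5× lens) and expressed as average reduction versus control.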

[2] = tested on: Botrytis cinerea B05.10 isolate; test: Greenhouse whole plant assay (tomato 'Lanai', disease severity); assay type: in vivo; conditions: final rating day (rating #3), two runs, three-week-old 'Lanai' tomato plant
[3] = tested on: Botrytis; test: Open-air field trial on strawberry (Example 4.1, AUDPC of % disease severity); assay type: in vivo, Botrytis cinerea; conditions: GS730 100 g ai/ha, FIG. 6
Protocol: RNAi compositions, each containing a dsRNA comprising a trigger sequence (GS349 or GS730) described herein were evaluated for ability to control botrytis on strawberry in open-air field trials. Non-formulated (dissolved in water) GS349 and GS730 were each tank mixed with water and the standard adjuvant Silwet L-77 0.1% v/v. GS349 was tested at concentrations of 25 grams of active ingredient per hectare (g ai/ha) and 50 g ai/ha and GS730 was tested at a concentration of 100 g ai/ha. Serenade ASO 85 g ai/ha, a standard biological fungicide, was used as a positive control. A second positive control group was treated with alternating applications of the chemical standards Teldor Plus 750 g ai/ha, Signum 600 g ai/ha, and Switch 500 g ai/ha. The trial also included an untreated group as a negative control.
Test compositions and positive controls were sprayed onto strawberry plants in 12 applications. Plants were observed beginning 14 days after the first application and disease progress was assessed by determining the percentage of surface area of fruit that was affected by the disease (% Disease Severity). Disease severity was plotted over the length of the trial observations and area under disease progress curve (AUDPC) was calculated in order to measure the cumulative effect of the various treatments across multiple assessments. Means were separated according to Fisher's LSD, alpha (p)≤0.05.

B1: GS730: dsRNA trigger targeting B. cinerea Bcsec15 (XM_024692064.1); trigger SEQ ID NO 19, RNA 31, reverse complement 43 (nucleic acid, listed as Botrytis cinerea)
sense: UCAACGCAGUCUCCAAAGCUUUGGAUGAAUUCGAUAACCCGGAUGUUAUUCUGCAAACCAAGAAUGUGAUAGCAUUGUUCAUCCAAACAAUGGAGGGUUGGGGAUAUUCAGUUGCCAUAUUAGAUGCUUAUGUGCUUAAGCUUUUCUAUAGAUAUGCUGAUUUGUUAAAACGGAAAUUCAGCACAGAUUUUCAACAGAUUGUGUCUACCGAUGAAUACAUGCCUAUGCCUGUCAAUAGCGAAGAAGACUUUGAUAAAAUCAUUCAAGUCAGUUGGUAUGUUCCGGACAGACCGAAAGAAGAAUACACAUUCCCCGGUGUAUUACCAUUCUCCCAGAUGUACCCAAUGUGCUGUAUAGAUAUCAGAAAUUUCCUGAAUCGAUUCUACUUCAUAAUGGAUGAUCAUUUUCAACAGCCAAACAUUAUUGAUGAGACACUUAAGAAGUCGAUAGAUGAGCUUCUGUCUGAGGAUAUUUGUGA
antisense: UCACAAAUAUCCUCAGACAGAAGCUCAUCUAUCGACUUCUUAAGUGUCUCAUCAAUAAUGUUUGGCUGUUGAAAAUGAUCAUCCAUUAUGAAGUAGAAUCGAUUCAGGAAAUUUCUGAUAUCUAUACAGCACAUUGGGUACAUCUGGGAGAAUGGUAAUACACCGGGGAAUGUGUAUUCUUCUUUCGGUCUGUCCGGAACAUACCAACUGACUUGAAUGAUUUUAUCAAAGUCUUCUUCGCUAUUGACAGGCAUAGGCAUGUAUUCAUCGGUAGACACAAUCUGUUGAAAAUCUGUGCUGAAUUUCCGUUUUAACAAAUCAGCAUAUCUAUAGAAAAGCUUAAGCACAUAAGCAUCUAAUAUGGCAACUGAAUAUCCCCAACCCUCCAUUGUUUGGAUGAACAAUGCUAUCACAUUCUUGGUUUGCAGAAUAACAUCCGGGUUAUCGAAUUCAUCCAAAGCUUUGGAGACUGCGUUGA
Average % Reduction in Biomass ([1]; 25 ppm dsRNA): 21%
Average % Reduction in Biomass ([1]; 150 ppm dsRNA): 45%
% control ([2]; 8 g ai/ha): 61%
% control ([2]; 25 g ai/ha): 58%
Disease control compared with the biological standard, Serenade (AUDPC) ([3]; GS349 25 g ai/ha, Serenade ASO 85 g ai/ha): not significantly different
Control of Botrytis vs. the untreated control (AUDPC) ([3]; non-formulated, Silwet L-77 0.1% v/v, 12 applications, GS349 25 and 50 g ai/ha): significant control
